# B1: nicked 18mer 3'OH (oligos 1,3,4) (dsDNA)
# DNA 1: GTCCGACGACGCATCAGC
# DNA 2: GCTGATGCGTC
# DNA 3: GTCGGAC
# modifications: 5' phosphate on 7mer, 5'-adenylylated in the crystal
# B2: nicked 18mer 3'ddC (oligos 1,2,3) (dsDNA)
# DNA 1: GTCCGACGACGCATCAGC
# DNA 2: GCTGATGCGTC
# DNA 3: GTCGGAC
# modifications: 3'-terminal C of 11mer is ddC; 5' phosphate on 7mer, 5'-adenylylated in the complex
# B3: nicked 18mer 3'-8oxoG:A (oligos 3,5,6) (dsDNA)
# DNA 1: GTCCGACAACGCATCAGC
# DNA 2: GCTGATGCGTG
# DNA 3: GTCGGAC
# modifications: 3'-terminal G of 11mer is 8oxoG (opposite A); 5' phosphate on 7mer, 5'-adenylylated in the crystal
# Legend:
# [1] = target: LIG1 E592R (Homo sapiens, UniProt P18858 262-904, E592R); assay: X-ray crystallography (1.85 A); 2 mM EDTA in cryoprotectant, 1 mM ATP; Crystals: complex in 150 mM NaCl, 20 mM Tris-Cl pH 7.5, 1 mM TCEP, 1 mM ATP mixed 1:1 with 100 mM MES pH 6, 100 mM lithium acetate, 15% PEG3350; ligation/trapping: 50 mM NaMOPS pH 7.5, 1 mM DTT, 0.05 mg/mL BSA, ionic strength 150 mM (NaCl), 37 C; details: protein: recombinant; tags: His-tag removed by TEV; nicked duplex, 11mer + 7mer on 18mer template, blunt ends
# LIG1 E592R, sequence (P18858 262-904 E592R): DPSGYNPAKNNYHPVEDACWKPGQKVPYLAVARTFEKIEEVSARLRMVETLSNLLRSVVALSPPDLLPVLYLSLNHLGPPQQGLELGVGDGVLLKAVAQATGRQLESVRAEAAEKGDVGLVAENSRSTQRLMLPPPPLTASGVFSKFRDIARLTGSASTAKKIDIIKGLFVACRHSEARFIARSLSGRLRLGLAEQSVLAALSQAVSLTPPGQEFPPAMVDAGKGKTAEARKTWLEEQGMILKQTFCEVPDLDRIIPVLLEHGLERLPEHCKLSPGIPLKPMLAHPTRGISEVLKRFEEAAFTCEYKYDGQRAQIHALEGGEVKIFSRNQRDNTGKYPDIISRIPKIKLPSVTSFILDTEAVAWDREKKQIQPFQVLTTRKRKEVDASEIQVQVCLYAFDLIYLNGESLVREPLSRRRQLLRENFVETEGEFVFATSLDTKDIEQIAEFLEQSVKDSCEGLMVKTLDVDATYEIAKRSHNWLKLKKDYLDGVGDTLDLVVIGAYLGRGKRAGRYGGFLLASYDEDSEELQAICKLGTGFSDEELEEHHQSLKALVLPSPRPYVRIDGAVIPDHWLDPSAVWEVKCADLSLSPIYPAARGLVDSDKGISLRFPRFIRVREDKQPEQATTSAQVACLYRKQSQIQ
# [2] = target: T1, LIG1 WT (Homo sapiens, UniProt P18858 262-904); assay: X-ray crystallography (1.55 A); 2 mM EDTA in cryoprotectant, 1 mM ATP; Crystals: complex in 150 mM NaCl, 20 mM Tris-Cl pH 7.5, 1 mM TCEP, 1 mM ATP mixed 1:1 with 100 mM MES pH 6, 100 mM lithium acetate, 15% PEG3350; ligation/trapping: 50 mM NaMOPS pH 7.5, 1 mM DTT, 0.05 mg/mL BSA, ionic strength 150 mM (NaCl), 37 C; details: protein: recombinant; tags: His-tag removed by TEV; nicked duplex, 11mer + 7mer on 18mer template, blunt ends
# T1 sequence (P18858 262-904): as the sequence (P18858 262-904 E592R) above, with R331E counted along it
# [3] = target: T2, LIG1 E346A/E592A (EE/AA) (Homo sapiens, UniProt P18858 262-904, E346A;E592A); assay: X-ray crystallography (1.75 A); 2 mM EDTA in cryoprotectant, 1 mM ATP; 5'-adenylylated; Crystals: complex in 150 mM NaCl, 20 mM Tris-Cl pH 7.5, 1 mM TCEP, 1 mM ATP mixed 1:1 with 100 mM MES pH 6, 100 mM lithium acetate, 15% PEG3350; ligation/trapping: 50 mM NaMOPS pH 7.5, 1 mM DTT, 0.05 mg/mL BSA, ionic strength 150 mM (NaCl), 37 C; details: protein: recombinant; tags: His-tag removed by TEV; nicked duplex, 11mer + 7mer on 18mer template, blunt ends
# T2 sequence (P18858 262-904 E346A/E592A): as the sequence (P18858 262-904 E592R) above, with E85A, R331A counted along it
# [4] = target: T2, LIG1 E346A/E592A (EE/AA); assay: X-ray crystallography (2.20 A); 200 mM Mg2+ in cryoprotectant, 1 mM ATP; Crystals: complex in 150 mM NaCl, 20 mM Tris-Cl pH 7.5, 1 mM TCEP, 1 mM ATP mixed 1:1 with 100 mM MES pH 6, 100 mM lithium acetate, 15% PEG3350; ligation/trapping: 50 mM NaMOPS pH 7.5, 1 mM DTT, 0.05 mg/mL BSA, ionic strength 150 mM (NaCl), 37 C; details: protein: recombinant; tags: His-tag removed by TEV; nicked duplex, 11mer + 7mer on 18mer template, blunt ends
# [5] = target: T1, LIG1 WT; assay: X-ray crystallography (2.05 A); 200 mM Mg2+ in cryoprotectant, 1 mM ATP; AMP-DNA intermediate; 4 Mg2+ sites; Crystals: complex in 150 mM NaCl, 20 mM Tris-Cl pH 7.5, 1 mM TCEP, 1 mM ATP mixed 1:1 with 100 mM MES pH 6, 100 mM lithium acetate, 15% PEG3350; ligation/trapping: 50 mM NaMOPS pH 7.5, 1 mM DTT, 0.05 mg/mL BSA, ionic strength 150 mM (NaCl), 37 C; details: protein: recombinant; tags: His-tag removed by TEV; nicked duplex, 11mer + 7mer on 18mer template, blunt ends
# [6] = target: T2, LIG1 E346A/E592A (EE/AA); assay: X-ray crystallography (1.85 A); 2 mM EDTA in cryoprotectant, 1 mM ATP; 5'-adenylylated; Crystals: complex in 150 mM NaCl, 20 mM Tris-Cl pH 7.5, 1 mM TCEP, 1 mM ATP mixed 1:1 with 100 mM MES pH 6, 100 mM lithium acetate, 15% PEG3350; ligation/trapping: 50 mM NaMOPS pH 7.5, 1 mM DTT, 0.05 mg/mL BSA, ionic strength 150 mM (NaCl), 37 C; details: protein: recombinant; tags: His-tag removed by TEV; nicked duplex, 11mer + 7mer on 18mer template, blunt ends, 8oxoG:A Hoogsteen pair at nick
binder,measurement,setting,value
B1,binding result,[1],binds
same,binding result,[2],binds
same,binding result,[3],binds
B2,binding result,[4],binds
same,binding result,[5],binds
B3,binding result,[6],binds

# Source: publication PMC6882888, “Two-tiered enforcement of high-fidelity DNA ligation”
